Measured values from FireProtDB (doi:10.1006/jmbi.1997.1365).
Where “and” joins values, the source holds several entries; their conditions need not be identical. Identical values can stand only once.

B1: Lysozyme C, P61626 (parent)
chain: MKALIVLGLVLLSVTVQGKVFERCELARTLKRLGMDGYRGISLANWMCLAKWESGYNTRATNYNAGDRSTDYGIFQINSRYWCNDGKTPGAVNACHLSCSALLQDNIADAVACAKRVVRDPQGIRAWVAWRNRCQNRDVRQYVQGCGV

Variants of: B1
Conditions: Homo sapiens; pH 2.49; Thermal; DSC; glycine 0.05 M; reversible: yes; structure 1LZ1; whole UniProt chain shown

Q: For MKALIVLGLVLLSVTVQGKVFERCELARTLKRLGMDGYRGISLANWMCLAKWESGYNTRATNYNAGDRSTDYGIFQGNSRYWCNDGKTPGAVNACHLSCSALLQDNIADAVACAKRVVRDPQGIRAWVAWRNRCQNRDVRQYVQGCGV [I77G], which Tm is on record?
A: 48.1 °C

Q: What about the “heat capacity change of unfolding” value of the same variant?
A: 0.79 kcal/mol/K

Q: And the “unfolding enthalpy (calorimetric)” value?
A: 84.4 kcal/mol

Q: And the “unfolding enthalpy (van 't Hoff)” value?
A: 89.7 kcal/mol

Same assay, conditions: Homo sapiens; pH 2.7; 64.9 °C; Thermal; DSC; glycine 0.05 M; reversible: yes; structure 1LZ1; whole UniProt chain shown

Q: For MKALIVLGLVLLSVTVQGKVFERCELARTLKRLGMDGYRGISLANWMCLAKWESGYNTRATNYNAGDRSTDYGIFQGNSRYWCNDGKTPGAVNACHLSCSALLQDNIADAVACAKRVVRDPQGIRAWVAWRNRCQNRDVRQYVQGCGV [I77G], which “ddG of mutation (higher = less stable)” value is on record?
A: 3.83 kcal/mol

Q: And the “heat capacity change of unfolding” value?
A: 1.24 kcal/mol/K

Q: What about the “unfolding enthalpy (calorimetric)” value of the same variant?
A: 106 kcal/mol

Q: And the “unfolding enthalpy (van 't Hoff)” value?
A: 110 kcal/mol

Q: Which results are given for MKALIVLGLVLLSVTVQGKVFERCELARTLKRLGMDGYRGASLANWMCLAKWESGYNTRATNYNAGDRSTDYGIFQINSRYWCNDGKTPGAVNACHLSCSALLQDNIADAVACAKRVVRDPQGIRAWVAWRNRCQNRDVRQYVQGCGV [I41A]?
A: ddG of mutation (higher = less stable): 2.54 kcal/mol; heat capacity change of unfolding: 1.2 kcal/mol/K; unfolding enthalpy (calorimetric): 109 kcal/mol; unfolding enthalpy (van 't Hoff): 116 kcal/mol

Q: Which results are given for MKALIVLGLVLLSVTVQGKVFERCELARTLKRLGMDGYRGISLANWMCLAKWESGYNTRATNYNAGDRSTDYGAFQINSRYWCNDGKTPGAVNACHLSCSALLQDNIADAVACAKRVVRDPQGIRAWVAWRNRCQNRDVRQYVQGCGV [I74A]?
A: ddG of mutation (higher = less stable): 3.71 kcal/mol; heat capacity change of unfolding: 1.34 kcal/mol/K; unfolding enthalpy (calorimetric): 105 kcal/mol; unfolding enthalpy (van 't Hoff): 111 kcal/mol

Same assay, conditions: Homo sapiens; pH 2.7; Thermal; DSC; glycine 0.05 M; reversible: yes; structure 1LZ1; whole UniProt chain shown

Q: Which results are given for MKALIVLGLVLLSVTVQGKVFERCELARTLKRLGMDGYRGISLANWMCLAKWESGYNTRATNYNAGDRSTDYGIFQGNSRYWCNDGKTPGAVNACHLSCSALLQDNIADAVACAKRVVRDPQGIRAWVAWRNRCQNRDVRQYVQGCGV [I77G]?
A: Tm: 52 °C and 52.2 °C; change of melting temperature, mutant - wild type (higher = more stable): -12.7 °C; heat capacity change of unfolding: 0.62 kcal/mol/K and 1.24 kcal/mol/K; unfolding enthalpy (calorimetric): 90.9 kcal/mol; unfolding enthalpy (van 't Hoff): 92.8 kcal/mol

Q: With MKALIVLGLVLLSVTVQGKVFERCELARTLKRLGMDGYRGASLANWMCLAKWESGYNTRATNYNAGDRSTDYGIFQINSRYWCNDGKTPGAVNACHLSCSALLQDNIADAVACAKRVVRDPQGIRAWVAWRNRCQNRDVRQYVQGCGV [I41A] as the variant, how does the Tm read?
A: 56.8 °C

Q: And the “change of melting temperature, mutant - wild type (higher = more stable)” value?
A: -8.1 °C

Q: And the “heat capacity change of unfolding” value?
A: 1.2 kcal/mol/K

Same assay, conditions: Homo sapiens; pH 2.82; Thermal; DSC; glycine 0.05 M; reversible: yes; structure 1LZ1; whole UniProt chain shown

Q: Which Tm does the source give for MKALIVLGLVLLSVTVQGKVFERCELARTLKRLGMDGYRGISLANWMCLAKWESGYNTRATNYNAGDRSTDYGIFQGNSRYWCNDGKTPGAVNACHLSCSALLQDNIADAVACAKRVVRDPQGIRAWVAWRNRCQNRDVRQYVQGCGV [I77G] here?
A: 54.6 °C

Q: And the “heat capacity change of unfolding” value?
A: 0.65 kcal/mol/K

Q: And the “unfolding enthalpy (calorimetric)” value?
A: 94.7 kcal/mol

Q: What about the “unfolding enthalpy (van 't Hoff)” value of the same variant?
A: 97.6 kcal/mol

Same assay, conditions: Homo sapiens; pH 3.02; Thermal; DSC; glycine 0.05 M; reversible: yes; structure 1LZ1; whole UniProt chain shown

Q: Which results are given for MKALIVLGLVLLSVTVQGKVFERCELARTLKRLGMDGYRGISLANWMCLAKWESGYNTRATNYNAGDRSTDYGIFQGNSRYWCNDGKTPGAVNACHLSCSALLQDNIADAVACAKRVVRDPQGIRAWVAWRNRCQNRDVRQYVQGCGV [I77G]?
A: Tm: 59.2 °C; heat capacity change of unfolding: 0.86 kcal/mol/K; unfolding enthalpy (calorimetric): 98.6 kcal/mol; unfolding enthalpy (van 't Hoff): 100 kcal/mol

Same assay, conditions: Homo sapiens; pH 3.16; Thermal; DSC; glycine 0.05 M; reversible: yes; structure 1LZ1; whole UniProt chain shown

Q: Which results are given for MKALIVLGLVLLSVTVQGKVFERCELARTLKRLGMDGYRGISLANWMCLAKWESGYNTRATNYNAGDRSTDYGIFQGNSRYWCNDGKTPGAVNACHLSCSALLQDNIADAVACAKRVVRDPQGIRAWVAWRNRCQNRDVRQYVQGCGV [I77G]?
A: Tm: 60.4 °C; heat capacity change of unfolding: 0.81 kcal/mol/K; unfolding enthalpy (calorimetric): 100 kcal/mol; unfolding enthalpy (van 't Hoff): 102 kcal/mol

Same assay, conditions: Homo sapiens; pH 2.67; Thermal; DSC; glycine 0.05 M; reversible: yes; structure 1LZ1; whole UniProt chain shown

Q: Which Tm does the source give for MKALIVLGLVLLSVTVQGKVFERCELARTLKRLGMDGYRGASLANWMCLAKWESGYNTRATNYNAGDRSTDYGIFQINSRYWCNDGKTPGAVNACHLSCSALLQDNIADAVACAKRVVRDPQGIRAWVAWRNRCQNRDVRQYVQGCGV [I41A] here?
A: 56.2 °C

Q: And the “heat capacity change of unfolding” value?
A: 1.51 kcal/mol/K

Q: And the “unfolding enthalpy (calorimetric)” value?
A: 98.1 kcal/mol

Q: And the “unfolding enthalpy (van 't Hoff)” value?
A: 103 kcal/mol

Q: With MKALIVLGLVLLSVTVQGKVFERCELARTLKRLGMDGYRGISLANWMCLAKWESGYNTRATNYNAGDRSTDYGAFQINSRYWCNDGKTPGAVNACHLSCSALLQDNIADAVACAKRVVRDPQGIRAWVAWRNRCQNRDVRQYVQGCGV [I74A] as the variant, how does the Tm read?
A: 52.3 °C

Q: What about the “heat capacity change of unfolding” value of the same variant?
A: 1.53 kcal/mol/K

Q: What about the “unfolding enthalpy (calorimetric)” value of the same variant?
A: 89 kcal/mol

Q: What about the “unfolding enthalpy (van 't Hoff)” value of the same variant?
A: 91.4 kcal/mol

Same assay, conditions: Homo sapiens; pH 2.96; Thermal; DSC; glycine 0.05 M; reversible: yes; structure 1LZ1; whole UniProt chain shown

Q: Which results are given for MKALIVLGLVLLSVTVQGKVFERCELARTLKRLGMDGYRGASLANWMCLAKWESGYNTRATNYNAGDRSTDYGIFQINSRYWCNDGKTPGAVNACHLSCSALLQDNIADAVACAKRVVRDPQGIRAWVAWRNRCQNRDVRQYVQGCGV [I41A]?
A: Tm: 62 °C; heat capacity change of unfolding: 1.08 kcal/mol/K; unfolding enthalpy (calorimetric): 105 kcal/mol; unfolding enthalpy (van 't Hoff): 111 kcal/mol

Q: With MKALIVLGLVLLSVTVQGKVFERCELARTLKRLGMDGYRGISLANWMCLAKWESGYNTRATNYNAGDRSTDYGAFQINSRYWCNDGKTPGAVNACHLSCSALLQDNIADAVACAKRVVRDPQGIRAWVAWRNRCQNRDVRQYVQGCGV [I74A] as the variant, how does the Tm read?
A: 58.5 °C

Q: What about the “heat capacity change of unfolding” value of the same variant?
A: 1.6 kcal/mol/K

Q: And the “unfolding enthalpy (calorimetric)” value?
A: 96.9 kcal/mol

Q: And the “unfolding enthalpy (van 't Hoff)” value?
A: 102 kcal/mol

Same assay, conditions: Homo sapiens; pH 2.5; Thermal; DSC; glycine 0.05 M; reversible: yes; structure 1LZ1; whole UniProt chain shown

Q: With MKALIVLGLVLLSVTVQGKVFERCELARTLKRLGMDGYRGISLANWMCLAKWESGYNTRATNYNAGDRSTDYGAFQINSRYWCNDGKTPGAVNACHLSCSALLQDNIADAVACAKRVVRDPQGIRAWVAWRNRCQNRDVRQYVQGCGV [I74A] as the variant, how does the Tm read?
A: 48.2 °C

Q: What about the “heat capacity change of unfolding” value of the same variant?
A: 1.22 kcal/mol/K

Q: What about the “unfolding enthalpy (calorimetric)” value of the same variant?
A: 82.8 kcal/mol

Q: And the “unfolding enthalpy (van 't Hoff)” value?
A: 84 kcal/mol

Same assay, conditions: Homo sapiens; pH 2.81; Thermal; DSC; glycine 0.05 M; reversible: yes; structure 1LZ1; whole UniProt chain shown

Q: Which Tm does the source give for MKALIVLGLVLLSVTVQGKVFERCELARTLKRLGMDGYRGISLANWMCLAKWESGYNTRATNYNAGDRSTDYGAFQINSRYWCNDGKTPGAVNACHLSCSALLQDNIADAVACAKRVVRDPQGIRAWVAWRNRCQNRDVRQYVQGCGV [I74A] here?
A: 54.2 °C

Q: And the “heat capacity change of unfolding” value?
A: 1.46 kcal/mol/K

Q: And the “unfolding enthalpy (calorimetric)” value?
A: 90.7 kcal/mol

Q: What about the “unfolding enthalpy (van 't Hoff)” value of the same variant?
A: 92.1 kcal/mol

Same assay, conditions: Homo sapiens; pH 3.08; Thermal; DSC; glycine 0.05 M; reversible: yes; structure 1LZ1; whole UniProt chain shown

Q: What does the source list for MKALIVLGLVLLSVTVQGKVFERCELARTLKRLGMDGYRGISLANWMCLAKWESGYNTRATNYNAGDRSTDYGAFQINSRYWCNDGKTPGAVNACHLSCSALLQDNIADAVACAKRVVRDPQGIRAWVAWRNRCQNRDVRQYVQGCGV [I74A]?
A: Tm: 60.2 °C; heat capacity change of unfolding: 1.44 kcal/mol/K; unfolding enthalpy (calorimetric): 98.8 kcal/mol; unfolding enthalpy (van 't Hoff): 102 kcal/mol

Same assay, conditions: Homo sapiens; pH 2.73; Thermal; DSC; glycine 0.05 M; reversible: yes; structure 1LZ1; whole UniProt chain shown

Q: For MKALIVLGLVLLSVTVQGKVFERCELARTLKRLGMDGYRGISLANWMCLAKWESGYNTRATNYNAGDRSTDYGGFQINSRYWCNDGKTPGAVNACHLSCSALLQDNIADAVACAKRVVRDPQGIRAWVAWRNRCQNRDVRQYVQGCGV [I74G], which Tm is on record?
A: 62.7 °C
